# T1: B7-H3 on CHO-K1 cells stably transfected with B7-H3 (GenScript #M00536) (UniProt Q5ZPR3 29-534, limits assumed)
# T1 sequence (looked up): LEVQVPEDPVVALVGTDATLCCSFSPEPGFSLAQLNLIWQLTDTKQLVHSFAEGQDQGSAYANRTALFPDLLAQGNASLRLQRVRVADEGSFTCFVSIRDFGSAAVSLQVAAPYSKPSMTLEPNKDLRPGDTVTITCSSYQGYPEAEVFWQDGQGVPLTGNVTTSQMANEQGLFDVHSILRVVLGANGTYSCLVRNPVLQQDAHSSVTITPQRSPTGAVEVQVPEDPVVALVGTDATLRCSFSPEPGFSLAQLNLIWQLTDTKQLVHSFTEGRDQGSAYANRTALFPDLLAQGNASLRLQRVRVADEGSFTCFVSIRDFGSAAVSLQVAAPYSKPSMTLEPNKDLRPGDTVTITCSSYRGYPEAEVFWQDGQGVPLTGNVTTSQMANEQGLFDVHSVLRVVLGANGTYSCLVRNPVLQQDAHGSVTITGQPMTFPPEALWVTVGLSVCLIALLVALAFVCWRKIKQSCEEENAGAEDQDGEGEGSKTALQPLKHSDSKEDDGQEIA
# T2: his-tagged B7-H3 (UniProt Q5ZPR3-2 29-245, limits assumed)
# T2 construct: also called CD276; not shown: His tag
# T2 sequence (looked up): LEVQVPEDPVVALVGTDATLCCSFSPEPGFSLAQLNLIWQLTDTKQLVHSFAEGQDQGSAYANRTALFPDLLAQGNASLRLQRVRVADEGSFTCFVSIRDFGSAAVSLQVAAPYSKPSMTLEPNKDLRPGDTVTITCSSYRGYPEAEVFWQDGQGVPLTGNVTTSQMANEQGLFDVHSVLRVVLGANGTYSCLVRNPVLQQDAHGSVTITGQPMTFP
# Target: T1, B7-H3 on CHO-K1 cells stably …
# Test: cell-based or functional assay
Binder,"ADCC reporter assay, EC50 Value, CHOK1/B7-H3 cells","ADCC reporter assay, Max RLU, CHOK1/B7-H3 cells"
"40633p1.2.E1 IgG (antibody, V domains shown) VH: EVQLLESGRGLVQPGGSLRLSCAASGFTVSYYGMSWVRQAPGKGLEWVSVIKQDGSEEYYADSVKGRFTISRDNSKNTLYLQMNSLRAEDTAVYYCARHWNDYSNGMNVWGQGTTVTVSS VL: QSVLTQPPSASGTPGQRVTISCSGSTSNVGDRYVYWYQQLPGTAPKLLIYLDDQRPSGVPDRFSGSKSGTSASLAISGLQSEDEADYYCASWDASLNGWVFGGGTKLTVL",0.031 µg/mL,725000 RLU
"40511p1.1.G1 IgG (antibody, V domains shown) VH: DVQLVESGGGVVRPGESLRLSCAASGFTFSSYAESWVRQAPGEGLEWVSIISGSGGNTFYADSVKGRFTISRDNSKNTLYLQMNSLRAEDTAVYYCARFAYGFFDYWGLGTLVTVSS VL: EIVLTQSPGTLSVSPGEGATLSCRASQTVGSKLAWYQQKPGQPPSLLIYDASTRATGIPDRFSGSGSGTDFTLTISSLQSEDFAVYYCQQYRNWPPLTFGGGTKVEIK",0.0416 µg/mL,679000 RLU
"40511p1.1.D6 IgG (antibody, V domains shown) VH: DVQLVESGGGVVRPGESLTLSCAASGFTINSYAVSWVRQAPGEGLEWVSGISGSGVRYYADSVKGRFTISRDNSNNTLYLQMNSLRAEDTAVYYCARSNKVTWNNFFDYWGLGTLVTVSS VL: EVVLTQSPGTLTLSPGERATLSCRASRSILTSLAWYQQKPGQAPRLLIYNTVTRATGIPARFSGSGSGTEFTLTINSLQSEDFAVYYCQQYYDWPPLTFGGGTKVEIK",0.014 µg/mL,751000 RLU
"40511p1.1.G3 IgG (antibody, V domains shown) VH: DVQLVESGGGVVRPGESLTLSCAASGFTINSYAVSWVRQAPGEGLEWVSGISGSGVRYYADSVKGRFTISRDDSNNTLYLQMNSLRAEDTAVYYCARSNKVTWNNFFDYWGLGTLVTVSS VL: EVVLTQSPGTLTLSPGERATLSCRASRSILTSLAWYQQKPGQAPRLLIYNTVTRATGIPARFSGSGSGTEFTLTINSLQSEDFAVYYCQQYYDWPPLTFGGGTKVEIK",0.0141 µg/mL,723000 RLU

# The remaining lines, values ahead:
"ADCC reporter assay, EC50 Value, CHOK1/B7-H3 cells","ADCC reporter assay, Max RLU, CHOK1/B7-H3 cells",Binder
0.03 µg/mL,700000 RLU,"40633p1.2.F3 IgG (antibody, V domains shown) VH: EVQLLESGGGLVQPGGSLRLSCAASGFTVSYYGMSWVRQAPGKGLEWVSVIKQDGSEEYYADSVKGRFTISRDNSKNTLYLQMNSLRAEDTAVYYCARHWNDYSNGMNVWGQGTTVTVSS VL: not shown"
0.0268 µg/mL,669000 RLU,"40633p1.2.E5 IgG (antibody, V domains shown) VH: EVQLLESGGGLVQPGGSLRLSCAASGFTFDGYGMSWVRQAPGKGLEWVSAISGNSGSIYYADSVKGRFTISRDNSKNTLYLQMNSLRAEDTAAYYCAKEKWKHFIYYGMDVWGQGTTVTVSS VL: not shown"

# Target: T2, his-tagged B7-H3
# Test: SPR, Carterra LSA; binder captured by anti-human Fc, his-tagged B7-H3 injected
# Protocol: Binding affinities of anti-B7-H3 antibodies to B7-H3 were measured by Surface Plasmon Resonance (SPR) on a Carterra LSA instrument. Goat anti-human Fc antibody was amine coupled to a HC30M chip. ScFv-Fc supernatants were diluted 30-fold with HBSTE and were captured by the anti-human Fc coupled HC30M chip. A 1:2 dilution series of his-tagged B7-H3, starting at 400 nM, was injected onto the chip for binding. Data was analyzed using the Carterra TM Kinetics software.
Binder,Kd,kon,koff
"40633p1.1.H11 scFv-Fc (scFv, V domains shown, Tested as scFv-Fc supernatant) VH: EVQLLESGGGLVQPGGSLRLSCAASGFTFSSYPMTWVRQAPGKGLEWVADINSGGGTTLYADAVKGRFTISRDNSKNIVYLQMNSLRGEDTAVYYCAKHLDYYSYGMDVWGQGTTVTVSS VL: QSVLTQPPSASGTPGQRVTISCSGVTSKIGSKYVHWYQQLPGTAPKLLIYRNFERPSGVPDRFSGSTSGTSASLAISGLQSEDEADYYCATWEGALNGWVFGGGTKLTVL",0.175 nM,113000 M⁻¹ s⁻¹,–
"40633p1.1.G5 scFv-Fc (scFv, V domains shown, Tested as scFv-Fc supernatant) VH: EVQLLESGGGLVQPGGSLRLSCAASGFIVNYYGMSWVRQPPGKGLEWVSAIKQDGSEKYYADSVKGRFTISRDNSKTTLYLQMNSLRAEDTAVYYCARHWNDYSNGMNVWGQGTTVTVSS VL: QSVLTQPPSASGTPGQRVTISCSGSWSNIGSYNSHWYQKLPGTAPKLLIYTTDRRPSGVPDRFSGSKSGTSASLAISGLQSEDEADYYCGTWDDSLNVWVFGGGTKLTVL",437 nM,141000 M⁻¹ s⁻¹,0.06 s⁻¹
"40633p1.2.D11 scFv-Fc (scFv, V domains shown, Tested as scFv-Fc supernatant) VH: EVQLESGGGLVQPGGSLRLSCAASGFTVSYYGMSWVRQAPGKGLEWVSAIKQDGSEKYYADSVKGRFTISRDNSKNTLYLQMNSLRAEDTAVYYCARHWNDYSNAMNVWGQGTTVTVSS VL: QSVLTQPPSASGTPGQRVTISCSGSTSNIAIDFVNWYQQLPGTAPKLLIYTIDQRPSGVPDRFSGSKSGTSASLAISGLQSEDEAVYYCASWDASLNGWVFGRGTKLTVL",307 nM,241000 M⁻¹ s⁻¹,0.07 s⁻¹
"40633p1.1.G3 scFv-Fc (scFv, V domains shown) VH: EVQLLESGGGLVQPGGSLRLSCAASGLTFSSYAMNWVRQAPGKGLEWVAGIGGSGSSTYHTDSVKGRFTISRDNSKNTLYLQMNSLRAEDAAVYYCAKEDHWSGGMDVWGQGTTVTVSS VL: not shown",524 nM,73300 M⁻¹ s⁻¹,0.04 s⁻¹
"40633p1.2.D1 scFv-Fc (scFv, V domains shown, Tested as scFv-Fc supernatant) VH: EVQLLESGGGLVQPGGSLRLSCAASGFTFDVYGMSWVRQAPGKGLEWVSAINWNGGSTYYADSVKGRFTISRDNSENTLYLQMNSLRAEDTAVYYCAKEKWKHFIYYGMDVWGQGTTVTVSS VL: QSVLTQPASASGTPGQTVSISCSGSSSNIDSNTANWYQQLPGTAPKLLIYSNNQRPSGVPDRFSGSKSDTSASLAISGLQSEDEGDYYCSAWDDNLNGWLFGGGTKLTVL",39.8 nM,392000 M⁻¹ s⁻¹,0.02 s⁻¹
"40633p1.1.G7 scFv-Fc (scFv, V domains shown, Tested as scFv-Fc supernatant) VH: EVQLLESGGGLVQPGGSLRLSCAASGFTFSGSAMNWVRQAPGKGLEWVSAINSGGTTIYYADSVKGRFTVSRDNSKNTLYLQMNSLRAEDTAVYYCVKLDFYYGMDVWGEGTTVTVSS VL: QSVVTQPPSASGTPGQRVTVSCSGSSSNVGSKYVQWYQQLPGTAPKLLIYATDRRPSGVPDRFSGSKSGTSASLAISGLQSEDEADYYCASWDDSLNAWVFGGGTKLTVL",0.113 nM,411000 M⁻¹ s⁻¹,–
"40633p1.1.G10 scFv-Fc (scFv, V domains shown) VH: EVQLLESGGGLVEPGGSLRLSCAASGFSFSSYGMHWVRQAPGKGLDWVAVINGEGSGTYYADSVKGRFTISRDNSKSTLYLQMNSLRAEDTAVYYCTKYYYNYAMDVWGQGTTVTVSS VL: QSVLTQPPSASGTPGQRVTISCSGSRTDIGTTSVNWYQQLPGTAPKLLIYQSHQRPSGVPDRFSGSKSGTSASLAISGLQSEDEADYYCASWDASQNTWVFGGGTKLTVL",0.248 nM,349000 M⁻¹ s⁻¹,–
"40633p1.2.A8 scFv-Fc (scFv, V domains shown) VH: EVQLLESGGGLLQPGGSLRLSCAASGFSFSSYGMHWVRQAPGKGLEWVAAINSDGSRIYYADSVKGRFTISRDNSKNTLYLQMNSLRAEDTAVYYCTKYYYHYAMDVWGQGTTVTVSS VL: QSVLTQPPSASGTPGQRVTISCSGSRSDIGATTVNWYQQLPGTAPKLLIYQSHLRPSGVPDRFSGSKSGTSASLAISGLQSEDEADYYCASWDASLNTWVFGGGTKLTVL",12.5 nM,304000 M⁻¹ s⁻¹,–

# The remaining lines, values ahead:
Kd,kon,koff,Binder
1.11 nM,134000 M⁻¹ s⁻¹,–,"40633p1.2.E11 scFv-Fc (scFv, V domains shown) VH: EVQLLESGGGLVQPGGSLRLSCAASGFSFSNYDMSWVRQAPGKGLEWVAGIRSGSRTYYADSVKGRFTISRDNSKNTLYLQMNSLRAEDTATYYCGRYFNMDVWGQGTTVTVSS VL: QSVLTQPPSASGTPGQRVTISCSGSTFNIGTNLVHWYQQLPGTAPKLLIYLTDRRPPGVPDRFSGSKSGTSASLAISGLQSEDEANYYCATWDDSLNSFLFGGGTKLTVL"
40.2 nM,389000 M⁻¹ s⁻¹,0.02 s⁻¹,"40633p1.2.E5 scFv-Fc (scFv, V domains shown, Tested as scFv-Fc supernatant) VH: EVQLLESGGGLVQPGGSLRLSCAASGFTFDGYGMSWVRQAPGKGLEWVSAISGNSGSIYYADSVKGRFTISRDNSKNTLYLQMNSLRAEDTAAYYCAKEKWKHFIYYGMDVWGQGTTVTVSS VL: not shown"
164 nM,72000 M⁻¹ s⁻¹,0.01 s⁻¹,"Benchmark MGA-271 (antibody, V domains shown) VH: EVQLVESGGGLVQPGGSLRLSCAASGFTFSSFGMHWVRQAPGKGLEWVAYISSDSSAIYYADTVKGRFTISRDNAKNSLYLQMNSLRDEDTAVYYCGRGRENIYYGSRLDYWGQGTTVTVSS VL: DIQLTQSPSFLSASVGDRVTITCKASQNVDTNVAWYQQKPGKAPKALIYSASYRYSGVPSRFSGSGSGTDFTLTISSLQPEDFATYYCQQYNNYPFTFGQGTKLEIK"
10.8 nM,325000 M⁻¹ s⁻¹,–,"40633p1.2.G9 scFv-Fc (scFv, V domains shown) VH: EVQLLESGGGLLQPGGSLRLSCAASGFSFSSYGMHWVRQAPGKGLEWVAAINSDGSRIYYADSVEGRFTISRDNSKNTLYLQMNSLRAEDTAVYYCTKYYYHYAMDVWGQGTTVTVSS VL: QSVLTQPPSASGTPGQRVTISCSGSRSDIGATTVNWYQQLPGTAPKLLIYQSHLRPSGVPDRFSGSKSGTSASLAISGLQSEDEADYYCASWDASLNTWVFGGGTKLTVL"
